These results are taken from US20070275900A1.

The target of this assay is purified CD26 (dipeptidyl-peptidase IV, EC 3.4.14.5) (human) (UniProt P27487). In words: cell-based or functional assay.
Chain of purified CD26 (dipeptidyl-peptidase IV, EC 3.4.14.5) (human) (P27487 whole entry, form in doubt): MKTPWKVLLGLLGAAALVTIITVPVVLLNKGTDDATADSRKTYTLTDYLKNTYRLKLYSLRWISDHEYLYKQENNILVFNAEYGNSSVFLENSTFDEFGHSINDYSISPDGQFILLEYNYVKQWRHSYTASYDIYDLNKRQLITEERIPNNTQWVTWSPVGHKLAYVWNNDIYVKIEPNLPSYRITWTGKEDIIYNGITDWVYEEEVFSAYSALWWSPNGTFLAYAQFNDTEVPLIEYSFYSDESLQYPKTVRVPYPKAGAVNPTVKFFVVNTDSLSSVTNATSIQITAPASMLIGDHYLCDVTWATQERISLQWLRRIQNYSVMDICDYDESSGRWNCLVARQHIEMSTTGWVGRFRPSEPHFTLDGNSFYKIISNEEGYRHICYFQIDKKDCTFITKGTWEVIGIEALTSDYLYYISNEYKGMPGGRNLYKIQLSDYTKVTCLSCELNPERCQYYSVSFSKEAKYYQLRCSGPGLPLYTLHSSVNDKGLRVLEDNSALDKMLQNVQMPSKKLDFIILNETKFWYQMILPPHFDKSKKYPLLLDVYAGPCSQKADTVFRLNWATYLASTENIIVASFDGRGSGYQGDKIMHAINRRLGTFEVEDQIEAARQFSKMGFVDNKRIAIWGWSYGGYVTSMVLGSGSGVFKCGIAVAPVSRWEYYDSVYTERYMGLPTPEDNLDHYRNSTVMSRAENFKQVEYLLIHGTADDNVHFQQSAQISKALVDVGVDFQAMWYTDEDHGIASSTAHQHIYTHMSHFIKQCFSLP

Consider Diprotin A (peptide), for which the inhibition of conversion of 50 µM CAM-405 to CAM-212 by purified CD26, 100 µM diprotin A was more than 50%.
